± gives the standard error. For some of these results: Fewer inactive variants are shown than the library holds.
B1: glmS ribozyme (parent)
chain: AUAAAAGCGCCAGAACUACAGAAAUGUAGUUGACGAGGAGGAGGUUUAUCGAAUUUUCGGCGGAUGCCUCCAAA

What was measured:
Settings in all cases: with glucosamine-6-phosphate
[1] = variants of: B1; experiment: kcat; higher = faster cleavage; RNA array
How it was run: (§1)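 Tiles of sequenced MiSeq chips were imaged over ~14 h at 37 °C. On them, barcoded ribozyme variants had been transcribed in situ by E. coli RNA polymerase and were tracked via a hybridised Cy3 probe while glucosamine-6-phosphate (40 μM to 10 mM) in HEPES/KCl/Mg(OAc)2 buffer flowed in. Per-tile medians, normalised to baseline and to non-cleaving reference variants, were fit to one- or two-exponential decays for kobs, and weighted Michaelis–Menten fits gave kcat and KM.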

[2] = variants of: B1; experiment: KM; higher = weaker cofactor use; RNA array
How it was run: as §1

[3] = variants of: B1; experiment: self-cleavage kobs at 160 uM GlcN6P; higher = faster cleavage; RNA array
How it was run: as §1

[4] = variants of: B1; experiment: self-cleavage kobs at 640 uM GlcN6P; higher = faster cleavage; RNA array
How it was run: as §1

[5] = variants of: B1; experiment: self-cleavage kobs at 2500 uM GlcN6P; higher = faster cleavage; RNA array
How it was run: as §1

[6] = variants of: B1; experiment: self-cleavage kobs at 10000 uM GlcN6P; higher = faster cleavage; RNA array
How it was run: as §1

[7] = variants of: B1; experiment: self-cleavage kobs at 40 uM GlcN6P; higher = faster cleavage; RNA array
How it was run: as §1

Variant | kcat [1] | KM [2] | self-cleavage kobs at 160 uM GlcN6P [3] | self-cleavage kobs at 640 uM GlcN6P [4] | self-cleavage kobs at 2500 uM GlcN6P [5] | self-cleavage kobs at 10000 uM GlcN6P [6] | self-cleavage kobs at 40 uM GlcN6P [7]
U30G U46C | 0.000516 ± 3.6e-05 s⁻¹ | 1240 ± 170 µM | 6.38e-05 ± 2.1e-05 s⁻¹ | 0.000167 ± 3.1e-05 s⁻¹ | 0.000377 ± 7.4e-05 s⁻¹ | 0.000443 ± 8.5e-05 s⁻¹ | –
U30C G66A | 0.000173 ± 3.1e-05 s⁻¹ | 1860 ± 840 µM | – | 3.92e-05 ± 1e-05 s⁻¹ | 0.000153 ± 3.4e-05 s⁻¹ | 0.00014 ± 1.9e-05 s⁻¹ | –
U30C G66C | < 1e-05 s⁻¹ | 347 ± 120 µM | – | < 1e-05 s⁻¹ | < 1e-05 s⁻¹ | – | –
G29C U49G | 1.82e-05 ± 5.3e-06 s⁻¹ | – | – | – | – | – | < 1e-05 s⁻¹
U31A G40C | 0.00121 ± 0.00017 s⁻¹ | 1410 ± 380 µM | 0.000105 ± 3e-05 s⁻¹ | 0.00048 ± 0.0001 s⁻¹ | 0.00115 ± 0.00024 s⁻¹ | 0.00101 ± 0.00011 s⁻¹ | 3.09e-05 ± 7.3e-06 s⁻¹
G29C A39C | 0.000582 ± 8.5e-05 s⁻¹ | 4360 ± 1100 µM | 6.14e-05 ± 2.9e-05 s⁻¹ | 7.25e-05 ± 1.1e-05 s⁻¹ | 0.000212 ± 3e-05 s⁻¹ | 0.000406 ± 4.2e-05 s⁻¹ | –
G29U U47G | 0.000866 ± 0.00021 s⁻¹ | 1600 ± 640 µM | 0.00011 ± 2.1e-05 s⁻¹ | 0.000215 ± 3.4e-05 s⁻¹ | 0.000515 ± 0.00015 s⁻¹ | 0.000787 ± 0.00012 s⁻¹ | –
G29C A53G | 0.00235 ± 0.00053 s⁻¹ | 2630 ± 900 µM | 0.000154 ± 2.3e-05 s⁻¹ | 0.000398 ± 5.6e-05 s⁻¹ | 0.000948 ± 0.00014 s⁻¹ | 0.00209 ± 0.00021 s⁻¹ | 4.79e-05 ± 7.8e-06 s⁻¹
G29C A53C | 0.000417 ± 2.8e-05 s⁻¹ | 1380 ± 180 µM | 4.1e-05 ± 1.7e-05 s⁻¹ | 0.00013 ± 1.7e-05 s⁻¹ | 0.00029 ± 4.5e-05 s⁻¹ | 0.000356 ± 5.1e-05 s⁻¹ | –
U31A G66A | 0.0119 ± 0.0032 s⁻¹ | 6540 ± 2200 µM | 0.000259 ± 6.1e-05 s⁻¹ | 0.00114 ± 0.00021 s⁻¹ | 0.00305 ± 0.00048 s⁻¹ | 0.00767 ± 0.0017 s⁻¹ | 0.000105 ± 3.4e-05 s⁻¹
U30G A42U C67G | 0.00016 ± 2.9e-05 s⁻¹ | – | – | 8.82e-05 ± 2.3e-05 s⁻¹ | 0.000107 ± 2.9e-05 s⁻¹ | 0.000167 ± 4.5e-05 s⁻¹ | –
G29C C71A | 0.000154 ± 3.1e-05 s⁻¹ | – | – | 0.000104 ± 1.9e-05 s⁻¹ | 0.000119 ± 2.7e-05 s⁻¹ | 0.000253 ± 7.8e-05 s⁻¹ | –
G29C C71G | 8.64e-05 ± 1.2e-05 s⁻¹ | – | 5.06e-05 ± 1.3e-05 s⁻¹ | 3.96e-05 ± 1.4e-05 s⁻¹ | 8.9e-05 ± 1.2e-05 s⁻¹ | 8.49e-05 ± 1e-05 s⁻¹ | –
U31A G37A | 0.0007 ± 0.00026 s⁻¹ | – | 6.91e-05 ± 1.3e-05 s⁻¹ | 0.000245 ± 3.6e-05 s⁻¹ | 0.000309 ± 7.3e-05 s⁻¹ | 0.000939 ± 0.00018 s⁻¹ | –
U31A G37C | 3.35e-05 ± 2.7e-06 s⁻¹ | 1840 ± 580 µM | – | – | – | – | –
U31A C58G | 0.000589 ± 0.00022 s⁻¹ | – | – | – | 3.87e-05 ± 1.3e-05 s⁻¹ | 0.00013 ± 1.9e-05 s⁻¹ | –
U30A G60A | < 1e-05 s⁻¹ | – | – | < 1e-05 s⁻¹ | – | – | < 1e-05 s⁻¹
U30G U69A | 8.59e-05 ± 2.5e-05 s⁻¹ | – | 3.45e-05 ± 1.7e-05 s⁻¹ | 4.5e-05 ± 1.1e-05 s⁻¹ | 0.00013 ± 2e-05 s⁻¹ | 6.73e-05 ± 1.4e-05 s⁻¹ | –
U30C C58G C68A | 5.09e-05 ± 2.1e-05 s⁻¹ | – | – | 9.15e-05 ± 3.9e-05 s⁻¹ | 7.09e-05 ± 1.9e-05 s⁻¹ | – | –
G29U G37A | 0.000503 ± 4.3e-05 s⁻¹ | 3470 ± 490 µM | – | 8.23e-05 ± 1.1e-05 s⁻¹ | 0.000188 ± 3.4e-05 s⁻¹ | 0.000383 ± 4.6e-05 s⁻¹ | –
U30G G40U | 0.000787 ± 9.4e-05 s⁻¹ | 1610 ± 350 µM | 6.94e-05 ± 1.5e-05 s⁻¹ | 0.000212 ± 2.9e-05 s⁻¹ | 0.000615 ± 0.00014 s⁻¹ | 0.000668 ± 7.3e-05 s⁻¹ | 3.53e-05 ± 1.3e-05 s⁻¹
U30G G40C | 0.000669 ± 0.0001 s⁻¹ | 864 ± 240 µM | 0.000103 ± 1.9e-05 s⁻¹ | 0.000265 ± 3.4e-05 s⁻¹ | 0.000619 ± 8.6e-05 s⁻¹ | 0.000544 ± 0.0001 s⁻¹ | 3.69e-05 ± 1.2e-05 s⁻¹
U31A U45G | 0.0028 ± 0.00084 s⁻¹ | 1730 ± 710 µM | 0.000168 ± 4e-05 s⁻¹ | 0.000882 ± 0.00014 s⁻¹ | 0.00203 ± 0.00033 s⁻¹ | 0.00194 ± 0.00049 s⁻¹ | 7.39e-05 ± 1.2e-05 s⁻¹
U31A U45C | 0.00168 ± 0.00049 s⁻¹ | 3380 ± 1600 µM | – | 0.000288 ± 8.9e-05 s⁻¹ | 0.000998 ± 0.00023 s⁻¹ | 0.00116 ± 0.00024 s⁻¹ | –
G29U A39G | 0.0173 ± 0.0026 s⁻¹ | 3640 ± 720 µM | 0.000723 ± 0.00021 s⁻¹ | 0.00233 ± 0.0004 s⁻¹ | 0.0072 ± 0.0012 s⁻¹ | 0.0129 ± 0.0028 s⁻¹ | 0.000218 ± 4.4e-05 s⁻¹
G29U C70G | 7.29e-05 ± 6.3e-06 s⁻¹ | 354 ± 150 µM | – | 5.02e-05 ± 8.2e-06 s⁻¹ | 6.59e-05 ± 7.1e-06 s⁻¹ | 6.77e-05 ± 7.7e-06 s⁻¹ | –
U31A A42G | 0.0179 ± 0.0037 s⁻¹ | 1430 ± 370 µM | 0.00191 ± 0.00054 s⁻¹ | – | 0.00902 ± 0.0026 s⁻¹ | 0.0188 ± 0.0042 s⁻¹ | 0.000495 ± 7.3e-05 s⁻¹
U31A G59A | 0.000128 ± 1.5e-05 s⁻¹ | 2710 ± 740 µM | – | 2.94e-05 ± 1.4e-05 s⁻¹ | 5.49e-05 ± 1.7e-05 s⁻¹ | 0.000104 ± 2.3e-05 s⁻¹ | –
G29U A64U | 1.06e-05 ± 2.5e-07 s⁻¹ | 4920 ± 300 µM | < 1e-05 s⁻¹ | < 1e-05 s⁻¹ | – | – | –

Source: the supplement of paper PMC7125110
